For this data set, the target named is scFv PL2-6 (single-chain antibody variable fragment);Histone octamer H3 (H2A, H2B, H3, H4) (Mus musculus (mouse mAb PL2-6);Drosophila) (UniProt P84051+P02283+P02299+P84040). Nature of the data set: ITC. To be noted: ITC: 20 mM Tris-HCl pH 7.4, 50 mM NaCl, 1 mM EDTA, 25 C; EMSA: 10 mM Tris pH 7.4, 1 mM EDTA, 30 mM NaCl, 1% Ficoll 6000, on ice 10 min, 5% acrylamide gel in …. Background: In EMSA bound probe runs differently from free probe, usually more slowly.

Data on one substance can be found in PMC6534667.

A word on the Kd: it is the equilibrium constant for the complex coming apart.

Turning to 147 bp Widom 601 DNA (W601), the Kd is 190 nM.
